Data published in US12679878B2, “CRF2 receptor agonists and their use in therapy” (SANOFI, priority 2020, dated 2026).
Starred links: 1 amine or outer side, 2 acyl side, 3 side chain; linkers in the order of their positions; H or OH if unused. Groups on a side chain read outwards from the residue. No end group written: not given here. *: point of attachment. γGlu = O=C(O)[C@H](CCC(=O)[*:2])N[*:1]; Palmitoyl = CCCCCCCCCCCCCCCC(=O)*

T1: anti-target CRF1R receptor (UniProt P34998 24-415, limits assumed)
T1 sequence (looked up): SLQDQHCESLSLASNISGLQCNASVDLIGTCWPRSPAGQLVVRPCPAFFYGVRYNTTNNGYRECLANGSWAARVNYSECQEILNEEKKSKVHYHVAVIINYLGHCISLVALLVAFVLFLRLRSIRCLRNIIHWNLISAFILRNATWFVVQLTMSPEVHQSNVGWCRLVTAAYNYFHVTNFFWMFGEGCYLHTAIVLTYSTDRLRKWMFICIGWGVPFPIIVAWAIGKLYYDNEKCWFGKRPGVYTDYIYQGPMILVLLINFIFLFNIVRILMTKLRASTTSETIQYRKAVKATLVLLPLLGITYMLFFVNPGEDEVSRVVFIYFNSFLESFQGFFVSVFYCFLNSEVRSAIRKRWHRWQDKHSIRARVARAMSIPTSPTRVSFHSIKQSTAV


molecular target: T1, anti-target CRF1R receptor; assay: cell-based or functional assay

Row | Binder | EC50[nM] 0% HSA (cAMP, CRF1R-overexpression CHO cells) [nM] | Emax (%) (cAMP, CRF1R-overexpression CHO cells)
1 | FTLSLDVPTKIK([γGlu-Palmitoyl])QKLLKQEKQKKQRQKAKTNKQILEQV-NH2 (N-terminus assumed; SMILES CCCCCCCCCCCCCCCC(=O)N[C@@H](CCC(=O)NCCCC[C@H](NC(=O)[C@@H](NC(=O)[C@H](CCCCN)NC(=O)[C@@H](NC(=O)[C@@H]1CCCN1C(=O)[C@@H](NC(=O)[C@H](CC(=O)O)NC(=O)[C@H](CC(C)C)NC(=O)[C@H](CO)NC(=O)[C@H](CC(C)C)NC(=O)[C@@H](NC(=O)[C@@H](N)Cc1ccccc1)[C@@H](C)O)C(C)C)[C@@H](C)O)[C@@H](C)CC)C(=O)N[C@@H](CCC(N)=O)C(=O)N[C@@H](CCCCN)C(=O)N[C@@H](CC(C)C)C(=O)N[C@@H](CC(C)C)C(=O)N[C@@H](CCCCN)C(=O)N[C@@H](CCC(N)=O)C(=O)N[C@@H](CCC(=O)O)C(=O)N[C@@H](CCCCN)C(=O)N[C@@H](CCC(N)=O)C(=O)N[C@@H](CCCCN)C(=O)N[C@@H](CCCCN)C(=O)N[C@@H](CCC(N)=O)C(=O)N[C@@H](CCCNC(=N)N)C(=O)N[C@@H](CCC(N)=O)C(=O)N[C@@H](CCCCN)C(=O)N[C@@H](C)C(=O)N[C@@H](CCCCN)C(=O)N[C@H](C(=O)N[C@@H](CC(N)=O)C(=O)N[C@@H](CCCCN)C(=O)N[C@@H](CCC(N)=O)C(=O)N[C@H](C(=O)N[C@@H](CC(C)C)C(=O)N[C@@H](CCC(=O)O)C(=O)N[C@@H](CCC(N)=O)C(=O)N[C@H](C(N)=O)C(C)C)[C@@H](C)CC)[C@@H](C)O)C(=O)O) [peptide of SEQ ID NO: 10] | > 1000 | 10.2
2 | FTLSLDVPTKIK([γGlu-Palmitoyl])QKLLKQEKQKKQRQKAKTAKQILEQV-NH2 (N-terminus assumed; SMILES CCCCCCCCCCCCCCCC(=O)N[C@@H](CCC(=O)NCCCC[C@H](NC(=O)[C@@H](NC(=O)[C@H](CCCCN)NC(=O)[C@@H](NC(=O)[C@@H]1CCCN1C(=O)[C@@H](NC(=O)[C@H](CC(=O)O)NC(=O)[C@H](CC(C)C)NC(=O)[C@H](CO)NC(=O)[C@H](CC(C)C)NC(=O)[C@@H](NC(=O)[C@@H](N)Cc1ccccc1)[C@@H](C)O)C(C)C)[C@@H](C)O)[C@@H](C)CC)C(=O)N[C@@H](CCC(N)=O)C(=O)N[C@@H](CCCCN)C(=O)N[C@@H](CC(C)C)C(=O)N[C@@H](CC(C)C)C(=O)N[C@@H](CCCCN)C(=O)N[C@@H](CCC(N)=O)C(=O)N[C@@H](CCC(=O)O)C(=O)N[C@@H](CCCCN)C(=O)N[C@@H](CCC(N)=O)C(=O)N[C@@H](CCCCN)C(=O)N[C@@H](CCCCN)C(=O)N[C@@H](CCC(N)=O)C(=O)N[C@@H](CCCNC(=N)N)C(=O)N[C@@H](CCC(N)=O)C(=O)N[C@@H](CCCCN)C(=O)N[C@@H](C)C(=O)N[C@@H](CCCCN)C(=O)N[C@H](C(=O)N[C@@H](C)C(=O)N[C@@H](CCCCN)C(=O)N[C@@H](CCC(N)=O)C(=O)N[C@H](C(=O)N[C@@H](CC(C)C)C(=O)N[C@@H](CCC(=O)O)C(=O)N[C@@H](CCC(N)=O)C(=O)N[C@H](C(N)=O)C(C)C)[C@@H](C)CC)[C@@H](C)O)C(=O)O) [peptide of SEQ ID NO: 9] | > 1000 | 14.9

The remaining lines, values ahead:

Row | EC50[nM] 0% HSA (cAMP, CRF1R-overexpression CHO cells) [nM] | Emax (%) (cAMP, CRF1R-overexpression CHO cells) | Binder
3 | > 1000 | 41.8 | FTLSLDVPTKIK([γGlu-Palmitoyl])QKLLKQEKQRKQKQQAKTNAKILARV-NH2 (N-terminus assumed; SMILES CCCCCCCCCCCCCCCC(=O)N[C@@H](CCC(=O)NCCCC[C@H](NC(=O)[C@@H](NC(=O)[C@H](CCCCN)NC(=O)[C@@H](NC(=O)[C@@H]1CCCN1C(=O)[C@@H](NC(=O)[C@H](CC(=O)O)NC(=O)[C@H](CC(C)C)NC(=O)[C@H](CO)NC(=O)[C@H](CC(C)C)NC(=O)[C@@H](NC(=O)[C@@H](N)Cc1ccccc1)[C@@H](C)O)C(C)C)[C@@H](C)O)[C@@H](C)CC)C(=O)N[C@@H](CCC(N)=O)C(=O)N[C@@H](CCCCN)C(=O)N[C@@H](CC(C)C)C(=O)N[C@@H](CC(C)C)C(=O)N[C@@H](CCCCN)C(=O)N[C@@H](CCC(N)=O)C(=O)N[C@@H](CCC(=O)O)C(=O)N[C@@H](CCCCN)C(=O)N[C@@H](CCC(N)=O)C(=O)N[C@@H](CCCNC(=N)N)C(=O)N[C@@H](CCCCN)C(=O)N[C@@H](CCC(N)=O)C(=O)N[C@@H](CCCCN)C(=O)N[C@@H](CCC(N)=O)C(=O)N[C@@H](CCC(N)=O)C(=O)N[C@@H](C)C(=O)N[C@@H](CCCCN)C(=O)N[C@H](C(=O)N[C@@H](CC(N)=O)C(=O)N[C@@H](C)C(=O)N[C@@H](CCCCN)C(=O)N[C@H](C(=O)N[C@@H](CC(C)C)C(=O)N[C@@H](C)C(=O)N[C@@H](CCCNC(=N)N)C(=O)N[C@H](C(N)=O)C(C)C)[C@@H](C)CC)[C@@H](C)O)C(=O)O) [peptide of SEQ ID NO: 12]
4 | > 1000 | 14.1 | FTLSLDVPTKIK([γGlu-Palmitoyl])QKLLKQEKQRKQKQKAKTNAKILARV-NH2 (N-terminus assumed; SMILES CCCCCCCCCCCCCCCC(=O)N[C@@H](CCC(=O)NCCCC[C@H](NC(=O)[C@@H](NC(=O)[C@H](CCCCN)NC(=O)[C@@H](NC(=O)[C@@H]1CCCN1C(=O)[C@@H](NC(=O)[C@H](CC(=O)O)NC(=O)[C@H](CC(C)C)NC(=O)[C@H](CO)NC(=O)[C@H](CC(C)C)NC(=O)[C@@H](NC(=O)[C@@H](N)Cc1ccccc1)[C@@H](C)O)C(C)C)[C@@H](C)O)[C@@H](C)CC)C(=O)N[C@@H](CCC(N)=O)C(=O)N[C@@H](CCCCN)C(=O)N[C@@H](CC(C)C)C(=O)N[C@@H](CC(C)C)C(=O)N[C@@H](CCCCN)C(=O)N[C@@H](CCC(N)=O)C(=O)N[C@@H](CCC(=O)O)C(=O)N[C@@H](CCCCN)C(=O)N[C@@H](CCC(N)=O)C(=O)N[C@@H](CCCNC(=N)N)C(=O)N[C@@H](CCCCN)C(=O)N[C@@H](CCC(N)=O)C(=O)N[C@@H](CCCCN)C(=O)N[C@@H](CCC(N)=O)C(=O)N[C@@H](CCCCN)C(=O)N[C@@H](C)C(=O)N[C@@H](CCCCN)C(=O)N[C@H](C(=O)N[C@@H](CC(N)=O)C(=O)N[C@@H](C)C(=O)N[C@@H](CCCCN)C(=O)N[C@H](C(=O)N[C@@H](CC(C)C)C(=O)N[C@@H](C)C(=O)N[C@@H](CCCNC(=N)N)C(=O)N[C@H](C(N)=O)C(C)C)[C@@H](C)CC)[C@@H](C)O)C(=O)O) [peptide of SEQ ID NO: 14]
